Reference: patent US20100056445A1, “ADIPONECTIN FOR THE TREATMENT AND DIAGNOSIS OF ALBUMINURIA” (THOMAS JEFFERSON UNIVERSITY, priority 2006, published 2010)
Entries after “also recorded” stand apart in the source; their conditions may differ.

Key:
[1] = system: Adiponectin KO (Ad−/−) mice; test: Podocyte foot process effacement by electron microscopy in adiponectin KO mice; format: in vivo, mouse; conditions: gAd treatment, EM
Description: Adiponectin administration and animal studies: The mice were treated with 25 μg of recombinant human globular domain adiponectin (gAd; PepROTech, Rocky Hill, N.J.) subcutaneously twice daily for 10 consecutive days. The control animals were given PBS alone. 24-hour urines from each mouse were collected twice: one week before the injections and on the last day of the injections. The urine albumin and creatinine were measured with a mouse Albuwell ELISA kit and a Creatinine Companion kit (Exocell, Philadelphia, Pa.) (25,26). The mice were sacrificed five hours after the final gAd injection under anesthesia. Portions of kidney cortex were fixed in buffered formalin and embedded in paraffin. […]
Interventional animal studies: The mice were treated with 25 μg of recombinant human globular domain adiponectin gAd (PepROTech, Rocky Hill, N.J.), administered 25 μg/mouse twice a day for 10 consecutive days or full-length adiponectin (fAd) was administered using an AAV vector (AAV2/8 CMV fAd virus 4×1011 GC/mouse for 10 days). […] The urine albumin and creatinine were measured with a mouse Albuwell ELISA kit and a Creatinine Companion kit (Exocell, Philadelphia, Pa.) (26, 25). As an index of oxidant stress timed urine collections were also analyzed for hydrogen peroxide by Amplex red assay (Invitrogen/Molecular Probes, Carlsbad, Calif.) following the manufacturer's protocol. […]

AMPK = AMPK activity (p-Thr172 AMPKα) in podocytes by immunoblotting and confocal microscopy; format: cell-based, mouse
Description: Western immunoblotting: Total protein from mouse podocytes was solubilized in lysis buffer containing 1% Triton X-100, Protease Inhibitor Cocktail (Mini Complete Protease Inhibitor Cocktail, Roche, Germany), PMSF, and phosphatase inhibitors. Protein was resolved on SDS-PAGE and transferred to a nitrocellulose membrane (Bio-Rad, Hercules, Calif.) as previously described (29). The membrane was immunoblotted initially with rabbit anti mouse phospho-AMPKα (p-AMPKα) monoclonal antibody or with rabbit anti AMPKα monoclonal (Cell Signaling Technology, New England Bio Labs, Boston, Mass.). Subsequently membranes were blotted with a secondary donkey anti-rabbit antibody (Amersham Biosciences, Piscataway, N.J.) conjugated to horseradish peroxidase (HRP). […]
(§1) Immunohistochemistry: Immunocytochemistry was performed as described previously (30). […] Fluorescence pictures were obtained using confocal laser fluorescence microscope (LSM-510, Carl Zeiss, Jena, Germany). […] Quantitation of p-AMPKα positive cells was performed on 50 glomeruli from 4 mice in each group.
as §1, with “p-AMPKa” for “p-AMPKα”, “group. […]” for “group.”

B1: adiponectin: 30 kDa adipocyte-secreted protein; in the first series of tests the recombinant globular domain was used, later gAd or fAd (protein, UniProt Q15848 19-244, looked up)
Adiponectin: ETTTQGPGVLLPLPKGACTGWMAGIPGHPGHNGAPGRDGRDGTPGEKGEKGDPGLIGPKGDIGETGVPGAEGPRGFPGIQGRKGEPGEGAYVYRSAFSVGLETYVTIPNMPIRFTKIFYNQQNHYDGSTGKFHCNIPGLYYFAYHITVYMKDVKVSLFKKDKAMLFTYDQYQENNVDQASGSVLLHLEVGDQVWLQVYGEGERNGLYADNDNDSTFTGFLLYHDTN
- Podocyte foot process fusion / effacement [1]: improved podocyte foot process effacement; also recorded: restored podocyte foot processes
- AMPK activity (AMPKα phosphorylation on Thr-172) in podocytes (AMPK; globular adiponectin 3 μg/ml, 24 h, serum-free, normal glucose): increased
- Effect on the high glucose (HG) decrease of AMPK activity in podocytes (AMPK; high glucose exposure plus adiponectin): prevented; also recorded: blocked
